Here are results for 39 variants from the RNAGym collection of RNA variant scans (doi:10.7554/elife.80360).

B1: CPEB3 Ribozyme (parent)
chain: GGGGGCCACAGCAGAAGCGUUCACGUCGCGGCCCCUGUCAGAUUCUGGUGAAUCUGCGAAUUCUGCUGU

The variants in the data set derive from B1. Kind of data set: self-cleavage, relative activity (ratio to wild type); higher = more cleavage; co-transcriptional.
For the variant GGGGGACACAGCAGAAGCGUUCACGUCGCGGCCCCUGUCAGAUUCUGGUGAAUCUGCGAAUUCUGCUUU [C6A G68U], the self-cleavage was 0.939.

GGGGGACACAGCAGAAGCGUUCACGUCGCGGCCCCUGUCAGAUUCUGGUGAAUCUCCGAAUUCUGCUGU [C6A G56C]: the self-cleavage stood at 0.225.

GGGGGACACAGCAGAAGCGUUCACGACGCGGCCCCUGUCAGAUUCUGGUGAAUCUGCGAAUUCUGCUGU [C6A U26A]: the self-cleavage came to 0.256.

For GGGGGACACAGCAGAAGCGUUCACGGCGCGGCCCCUGUCAGAUUCUGGUGAAUCUGCGAAUUCUGCUGU [C6A U26G], the self-cleavage was found to be 0.265.

Take GGGGGACACAGCAGAAGCGUUCACGUCGCGGCCCCCGUCAGAUUCUGGUGAAUCUGCGAAUUCUGCUGU [C6A U36C]: the self-cleavage came to 0.247.

As for GGGGGACACAGCAGAAGCGAUCACGUCGCGGCCCCUGUCAGAUUCUGGUGAAUCUGCGAAUUCUGCUGU [C6A U20A], the self-cleavage is 0.0587.

On to GGGGGACACAGCAGAAGCGCUCACGUCGCGGCCCCUGUCAGAUUCUGGUGAAUCUGCGAAUUCUGCUGU [C6A U20C], for which the self-cleavage came out at 0.204.

In the case of GGGGGACACAGCAGAAGCGUUCACGUCGCGGCCCCUGUCAGAUUCUGGUGAAUCUGCGAAUCCUGCUGU [C6A U62C], the self-cleavage came to 0.338.

Turning to GGGGGACACAGCAGAAGCGUUCACGUCGCGGCCCCUGUCAGAUUCUGCUGAAUCUGCGAAUUCUGCUGU [C6A G48C], the self-cleavage is 0.693.

With GGGGGACACAGCAGAAGCGUUCACGUCGCGGCCCCUGUCAGAUUCCGGUGAAUCUGCGAAUUCUGCUGU [C6A U46C], the self-cleavage was 0.657.

For the variant GGGGGACACAGCAGAAGCGUUCACGUCGCGGCCCCUGUCAGAUUCAGGUGAAUCUGCGAAUUCUGCUGU [C6A U46A], the self-cleavage is 0.674.

GGGGGACACAGCAGAAGCGUUCACGUCGCGGCCCCUGUCAGAUUCGGGUGAAUCUGCGAAUUCUGCUGU [C6A U46G]: the self-cleavage worked out at 0.607.

Consider GGGGGACACAGCAGAAGCGUUCACGUCGCGGCCCCUGUCAGAUUCUGGUGAAUCUGCGAAUUCUCCUGU [C6A G65C], for which the self-cleavage was determined as 0.157.

Take GGGGGACACAGCAGAAGCGUUCACGUCGCGGCCCCUGUCAGAUUCUGGUGAAUCUGCGAAUUCUACUGU [C6A G65A]: the self-cleavage was 0.451.

In the case of GGGGGACACAGCAGAAGCGUUCACGUCGCGGCCCCUGUCAGAUUCUGGUGAAUCUGCGAAUUCUUCUGU [C6A G65U], the self-cleavage amounted to 0.305.

As to GGGGGACACAGCAGAAGCGUUCACGUCGCGGCCCCUGUCAGAUUCUGGUGAAUCUGCGAAUUAUGCUGU [C6A C63A], the self-cleavage came to 0.237.

For GGGGGACACAGCAGAAGCGUUCACGUCGCGGCCCCUGUCAGAUACUGGUGAAUCUGCGAAUUCUGCUGU [C6A U44A], the self-cleavage worked out at 0.373.

GGGGGACACAGCAGAAGCGUUCACGUCGCGGCCCCUGUCAGAUGCUGGUGAAUCUGCGAAUUCUGCUGU [C6A U44G]: the self-cleavage was found to be 0.416.

For GGGGGACACAGCAGAAGCGUUCACGUCGCGGCCCCUGUCAGAUCCUGGUGAAUCUGCGAAUUCUGCUGU [C6A U44C], the self-cleavage stood at 0.455.

With GGGGGACACAGCAGAAGCGUUCACGUCGCGGCCCCUGUCAGAUUCUGGUGAAUUUGCGAAUUCUGCUGU [C6A C54U], the self-cleavage amounted to 0.67.

Take GGGGGACACAGCACAAGCGUUCACGUCGCGGCCCCUGUCAGAUUCUGGUGAAUCUGCGAAUUCUGCUGU [C6A G14C]: the self-cleavage stood at 0.101.

GGGGGACACAGCAUAAGCGUUCACGUCGCGGCCCCUGUCAGAUUCUGGUGAAUCUGCGAAUUCUGCUGU [C6A G14U]: the self-cleavage stood at 0.116.

In the case of GGGGGACACAGCAAAAGCGUUCACGUCGCGGCCCCUGUCAGAUUCUGGUGAAUCUGCGAAUUCUGCUGU [C6A G14A], the self-cleavage is 0.128.

As to GGGGGACACAGCAGAAGCCUUCACGUCGCGGCCCCUGUCAGAUUCUGGUGAAUCUGCGAAUUCUGCUGU [C6A G19C], the self-cleavage was determined as 0.107.

Consider GGGGGACACAGCAGAAGCAUUCACGUCGCGGCCCCUGUCAGAUUCUGGUGAAUCUGCGAAUUCUGCUGU [C6A G19A], for which the self-cleavage worked out at 0.105.

GGGGGACACAGCAGAAGCGUUCACGUCGCGGCCCCUGUCAGAUUCUCGUGAAUCUGCGAAUUCUGCUGU [C6A G47C]: the self-cleavage was 0.689.

Consider GGGGGACACAGCAGAAGCGUUCACGUCGCGGCCCCUGUCAGAUUCUAGUGAAUCUGCGAAUUCUGCUGU [C6A G47A], for which the self-cleavage stood at 0.712.

As to GGGGGACACAGCAGAAGCGUUCACGUCGCGGCCCCUGUCAGAUUCUUGUGAAUCUGCGAAUUCUGCUGU [C6A G47U], the self-cleavage was 0.661.

Consider GGGGGACACAGCAGAAGCGUUCACGUCGCGGCCCCUGUCAAAUUCUGGUGAAUCUGCGAAUUCUGCUGU [C6A G41A], for which the self-cleavage stood at 0.241.

On to GGGGGACACAGCAGAAGCGUUCACGUCGCGGCCCCUUUCAGAUUCUGGUGAAUCUGCGAAUUCUGCUGU [C6A G37U], for which the self-cleavage is 0.142.

Take GGGGGACACAGCAGAAGCGUUCACGUCGCGGCCCCUCUCAGAUUCUGGUGAAUCUGCGAAUUCUGCUGU [C6A G37C]: the self-cleavage worked out at 0.122.

Take GGGGGACACAGCAGAAGCGUUCACGUCGCGGCCCCUAUCAGAUUCUGGUGAAUCUGCGAAUUCUGCUGU [C6A G37A]: the self-cleavage came to 0.149.

Regarding GGGGGACACAACAGAAGCGUUCACGUCGCGGCCCCUGUCAGAUUCUGGUGAAUCUGCGAAUUCUGCUGU [C6A G11A], the self-cleavage amounted to 0.536.

As for GGGGGACACAUCAGAAGCGUUCACGUCGCGGCCCCUGUCAGAUUCUGGUGAAUCUGCGAAUUCUGCUGU [C6A G11U], the self-cleavage stood at 0.448.

For GGGGGACACAGCAGAAGCGUUCACGUCGCGGCCCCUGUCAGAUUCUGGGGAAUCUGCGAAUUCUGCUGU [C6A U49G], the self-cleavage turned out to be 0.5.

As for GGGGGACACAGCAGAAGCGUUCACGUCGCGGCCCCUGUCAGAUUCUGGCGAAUCUGCGAAUUCUGCUGU [C6A U49C], the self-cleavage is 0.716.

GGGGGACACAGCAGAAGCGUUCACGUCGCGCCCCCUGUCAGAUUCUGGUGAAUCUGCGAAUUCUGCUGU [C6A G31C]: the self-cleavage is 0.762.

In the case of GGGGGACACAGCAGAAGCGUUCACGUCGCGUCCCCUGUCAGAUUCUGGUGAAUCUGCGAAUUCUGCUGU [C6A G31U], the self-cleavage amounted to 0.986.

GGGGGACACAGCAGAAGCGUUCACGUCGCGACCCCUGUCAGAUUCUGGUGAAUCUGCGAAUUCUGCUGU [C6A G31A]: the self-cleavage was 0.775.
